Consider one protein from US20150111836.

For this series, the target named is purified recombinant N-terminal His6 tagged HIV-1 HXBII Vif protein (E. coli).

B1: purified recombinant A3G-His6 (human APOBEC3G with C-terminal Myc-His6 tag, expressed in 293T cells) (protein)
chain: MKPHFRNTVERMYRDTFSYNFYNRPILSRRNTVWLCYEVKTKGPSRPPLDAKIFRGQVYSELKYHPEMRFFHWFSKWRKLHRDQEYEVTWYISWSPCTKCTRDMATFLAEDPKVTLTIFVARLYYFWDPDYQEALRSLCQKRDGPRATMKIMNYDEFQHCWSKFVYSQRELFEPWNNLPKYYILLHIMLGEILRHSMDPPTFTFNFNNEPWVRGRHETYLCYEVERMHNDTWVLLNQRRGFLCNQAPHKHGFLEGRHAELCFLDVIPFWKLDLDQDYRVTCFTSWSPCFSCAQEMAKFISKNKHVSLCIFTARIYDDQGRCQEGLRTLAEAGAKISIMTYSEFKHCWDTFVDHQGCPFQPWDGLDEHSQDLSGRLRAILQNQEN
Consider B1, for which the “A3G-mediated deamination of the ss-deoxyoligonucleotide substrate” value is recorded as “Vif inhibits A3G deaminase activity in a dose-dependent manner”.
